# Reference: US20250235545A1, “POLYPEPTIDE CONJUGATE AND USE THEREOF” (SHANGHAI CHIXI BIOMEDICAL TECHNOLOGY CO., LTD, priority 2024, published 2025)
# Where two headings read alike, the source gives them in different places. Where a SMILES comes first, the peptide text is derived from it. The star is where a group is joined. NEt(2-(20S-CPT-7-yl)ethyl) = CCN(CCc1c2c(nc3ccccc13)-c1cc3c(c(=O)n1C2)COC(=O)[C@]3(O)CC)*; X1 = CC[C@@]1(O)C(=O)OCc2c1cc1n(c2=O)Cc2c-1nc1ccccc1c2CCN(C1CCC1)*; X3 = CC[C@@]1(O)C(=O)OCc2c1cc1n(c2=O)Cc2c-1nc1ccccc1c2CCN(C1CC1)*; X7 = CC[C@@]1(O)C(=O)OCc2c1cc1n(c2=O)Cc2c-1nc1ccccc1c2CCN(C)*; Propanoyl(3-maleimido) = O=C1C=CC(=O)N1CCC(=O)*; PEG6 = NCCOCCOCCOCCOCCOCCOCCC(=O)O
# What was measured:
# [1] = Tumor homogenate activation efficiency, ovarian cancer tissue (Examples 28, 37); format: in vitro ADME; conditions: pH 5.0, 37° C., 2 h; Table 5
# Protocol: (§1) Buffer preparation: 50 mM PH buffer (MES), 250 mM NaCl, pH adjusted to 5.0 with 0.5 M of sodium hydroxide.
# (§2) The polypeptide conjugate was prepared into a 1 mg/ml solution with pH 5.0 buffer, 100 μg of tumor tissue homogenate was added, (the tumor tissue homogenate was the homogenate of tumor tissues prepared with a Jingxin F6/10 handheld homogenizer), and the solution was placed at 37° C. for 2 h. The tumor tissue homogenate could effectively activate the polypeptide conjugate and release Belotecan, and the activation efficiencies of the drugs in tumor tissues were compared by high-performance liquid chromatography (HPLC) allowing determination of a decrease in the compounds and an increase in Belotecan:
# (§3) Release percentage=peak area of Belotecan/total peak area of Belotecan and all other Belotecan-containing compounds
# as §2, with “HPLC” for “high-performance liquid chromatography (HPLC)”, “Belotecan: […]” for “Belotecan:”
# [2] = Tumor homogenate activation efficiency, small cell lung cancer tissue (Example 28); format: in vitro ADME; conditions: pH 5.0, 37° C., 2 h; Table 5
# Protocol: as §1, §2, §3
# [3] = MTD determination in mice (Examples 27, 36, 44); format: in vivo; conditions: female, mouse, in vivo; mice, monitored for 14 d; Table 4
# Description: Test animals: 6-8 weeks old mice, all female; mice were grouped randomly, with six mice in each group, administered with drugs at different concentration gradients separately and monitored for 14 d. A mouse was euthanized at a loss of 20% of its initial weight and deemed to have died of poisoning.
# [4] = Tumor homogenate activation efficiency, non-small cell lung cancer tissue (Examples 28, 37); format: in vitro ADME; conditions: pH 5.0, 37° C., 2 h; Table 5
# Protocol: as §1, §2, §3
# as §2, with “HPLC” for “high-performance liquid chromatography (HPLC)”, “Belotecan: […]” for “Belotecan:”
# [5] = system: sarcoma SJSA-1 tumor model; conditions: Table 2
# Protocol: Test objective: To investigate the antitumor efficacy of the above compounds in an animal tumor model of sarcoma SJSA-1.
# (§4) Test drug: Polypeptide conjugate, Irinotecan, Belotecan and normal saline control group.
# (§5) Test animals: 6-8 weeks old BALB/c mice, all female.
# (§6) SJSA-1 cells were purchased from ATCC and cultured in a DMEM medium containing 10% fetal bovine serum at 37° C. in 5% CO2. Passaging was performed every three days, and cells within 15 generations were used. 2×10^7 corresponding cells were injected into right chests of nude mice subcutaneously. After a volume of the tumors reached at least 100 mm^3, the mice were grouped randomly, with three mice in each group. Then treatment was started, and the day when the treatment was started was the first day. […] The control group was administered with normal saline. Administration was performed once a week for three weeks.
# as §6
# [6] = Tumor homogenate activation efficiency, breast cancer tissue (Examples 28, 37); format: in vitro ADME; conditions: pH 5.0, 37° C., 2 h; Table 5
# Protocol: as §1, §2, §3
# as §2, with “HPLC” for “high-performance liquid chromatography (HPLC)”, “Belotecan: […]” for “Belotecan:”
# [7] = Tumor homogenate activation efficiency, sarcoma tissue (Examples 28, 37); format: in vitro ADME; conditions: pH 5.0, 37° C., 2 h; Table 5
# Protocol: as §1, §2, §3
# as §2, with “HPLC” for “high-performance liquid chromatography (HPLC)”, “Belotecan: […]” for “Belotecan:”
# [8] = system: colo320 colorectal cancer tumor model
# Protocol: Test objective: To investigate the antitumor efficacy of the above compounds in an animal tumor model of colo320 colorectal cancer.
# as §4, §5
# as §6, with “Passaging” for “SJSA-1 cells were purchased from ATCC and cultured in a DMEM medium containing 10% fetal bovine serum at 37° C. in 5% CO2. Passaging”, “used. 7.5×10^6” for “used. 2×10^7”, “least 120” for “least 100”, “for four” for “for three”
# [9] = Homogenate activation efficiency, heart tissue (Examples 28, 37); format: in vitro ADME; conditions: pH 5.0, 37° C., 2 h; Table 5
# [10] = system: SKBR3 (breast cancer tissue); assay: cells; format: cell-based; conditions: CCK8, 48 h; Table 1
# Protocol: (§7) Different types of cells were cultured with complete media (RPMI1640 (DMEM high sugar medium)+10% fetal bovine serum+1XP/S+sodium pyruvate 1 mM solution) in an incubator at 37° C. and 5% CO2 until the cells grew to a sufficient number, and the cells were collected, centrifuged at 1,000 g for 5 min, resuspended with an appropriate volume of a 10% RMPI1640 (DMEM high sugar medium) medium and counted. In a 96-well culture plate, 100 μL of cell culture fluid containing different concentrations of drugs was added, control wells (0.1% DMSO) with only corresponding drug solvents without drugs, as well as blank wells (Blank) with only the medium but without cells were set, and three parallel wells were set in each group. After that, the cells after cell counting were inoculated onto 96-well culture plates, with 100 μL of cell suspension per well, and an inoculation concentration of the cells was 5,000 cells (100 μL)/well. The plates were then cultured in a CO2 (5%) incubator at 37° C. for 48 h. After 48 h, 10 μL of a cell proliferation staining reagent (CCK8) was added to each well, the plates were incubated in a cell incubator for around 2 h, and an absorbance at 450 nm was detected.
# (§8) Cell survival rates and median inhibitory concentrations of the drugs on the cells were calculated.
# as §7, with “serum+1×P/S+sodium” for “serum+1XP/S+sodium”, “adjusted to an appropriate density.” for “counted.”
# (§9) Cell survival rates and median inhibitory concentrations (IC50) of the drugs on the cells were calculated.
# SJSA-1 (sarcoma tissue) = assay: cells; format: cell-based; conditions: CCK8, 48 h; Table 1
# Protocol: as §7, §8
# as §7, with “serum+1×P/S+sodium” for “serum+1XP/S+sodium”, “adjusted to an appropriate density.” for “counted.”
# as §9
# [11] = system: A549 (non-small cell lung cancer); assay: cells; format: cell-based; conditions: CCK8, 48 h; Table 1
# Protocol: as §7, §8
# as §7, with “serum+1×P/S+sodium” for “serum+1XP/S+sodium”, “adjusted to an appropriate density.” for “counted.”
# as §9
# A2780 (ovarian cancer) = assay: cells; format: cell-based; conditions: CCK8, 48 h; Table 1
# Protocol: as §7, §8
# as §7, with “serum+1×P/S+sodium” for “serum+1XP/S+sodium”, “adjusted to an appropriate density.” for “counted.”
# as §9
# [12] = 45 mg/kg once a week for three weeks
# [13] = 45 mg/kg once a week for four weeks, Table 3
# [14] = Table 14 (Example 43), dose 45 mg/kg, once a week for four weeks, BALB/c mice
# [15] = Table 13 (Example 42), dose 45 mg/kg, once a week for four weeks, BALB/c mice
# [16] = 15 mg/kg once a week for three weeks
# [17] = 15 mg/kg once a week for four weeks, Table 3
Compound,Percentage of release efficiency (%) Ovarian cancer tissue (A2780) [1] [%],Percentage of release efficiency (%) Small cell lung cancer tissue (NCI-H841) [2] [%],MTD at 14 d [3] [mg/kg],Percentage of release efficiency (%) Non-small cell lung cancer tissue (A549) [4] [%],"Mouse weight (%) [5, 12]",Percentage of release efficiency (%) Breast cancer tissue (SKBR3) [6] [%],Percentage of release efficiency (%) Sarcoma tissue (SJSA1) [7] [%],"Mouse weight (%) [8, 13]","colo320 (colorectal cancer cell) growth rate (%) [8, 13] [%]","colo320 (colorectal cancer cell) mean tumor volume (mm^3) [8, 13] [mm^3]",Percentage of release efficiency (%) Heart tissue [9] [%],IC50 SKBR3 (breast cancer tissue) [10] [µg/mL],IC50 SJSA-1 (sarcoma tissue) (SJSA-1 (sarcoma tissue)) [µg/mL],IC50 A549 (non-small cell lung cancer) [11] [µg/mL],IC50 A2780 (ovarian cancer) (A2780 (ovarian cancer)) [µg/mL],"Mouse weight (%) [5, 16]","Mouse weight (%) [8, 17]",further results
CCN(CCc1c2c(nc3ccccc13)-c1cc3c(c(=O)n1C2)COC(=O)[C@]3(O)CC)C(=O)CNC(=O)[C@H](CC(N)=O)NC(=O)[C@H](C)NC(=O)CNC(=O)CCOCCOCCOCCOCCOCCOCCNC(=O)CCN1C(=O)C=CC1=O [MI-6PEG-GANG-D2] ({Propanoyl(3-maleimido)-PEG6}-GANG-{NEt(2-(20S-CPT-7-yl)ethyl)}),69.9,63.1,200,65.9,+18%,68.8,88.4,+39%,450.72,499.2,1.7,,,,,,,"SJSA-1 (sarcoma tissue) mean tumor volume (mm^3) [5, 12]: 1065.2 mm^3; SJSA-1 (sarcoma) Growth rate (%) [5, 12]: 918.28%; Mouse weight (%) [8, 14]: +39%; colo320 (colorectal cancer cell) growth rate (%) [8, 14]: 450.72%; colo320 (colorectal cancer cell) mean tumor volume (mm^3) [8, 14]: 499.2 mm^3"
CC[C@@]1(O)C(=O)OCc2c1cc1n(c2=O)Cc2c-1nc1ccccc1c2CCN(C)C(=O)CNC(=O)[C@H](Cc1ccccc1)NC(=O)CNC(=O)CNC(=O)CCOCCOCCOCCOCCOCCOCCNC(=O)CCN1C(=O)C=CC1=O [MI-6PEG-GGFG-D1] ({Propanoyl(3-maleimido)-PEG6}-GGFG-X7),67.2,66.3,250,71.7,,74.8,81.5,+19%,605.35,671.3,1.7,16.49,11.79,10.78,6.84,,,"Mouse weight (%) [8, 15]: +19%; colo320 (colorectal cancer cell) growth rate (%) [8, 15]: 605.35%; colo320 (colorectal cancer cell) mean tumor volume (mm^3) [8, 15]: 671.3 mm^3"
CC[C@@]1(O)C(=O)OCc2c1cc1n(c2=O)Cc2c-1nc1ccccc1c2CCN(C(=O)CNC(=O)[C@H](Cc1ccccc1)NC(=O)CNC(=O)CNC(=O)CCOCCOCCOCCOCCOCCOCCNC(=O)CCN1C(=O)C=CC1=O)C1CC1 [MI-6PEG-GGFG-D6] ({Propanoyl(3-maleimido)-PEG6}-GGFG-X3),66.3,72.1,,83.7,+2%,67.1,80.7,+19%,,,2.4,2.30,0.73,1.31,1.19,+28%,+29%,
CC[C@@]1(O)C(=O)OCc2c1cc1n(c2=O)Cc2c-1nc1ccccc1c2CCN(C(=O)CNC(=O)[C@H](Cc1ccccc1)NC(=O)CNC(=O)CNC(=O)CCOCCOCCOCCOCCOCCOCCNC(=O)CCN1C(=O)C=CC1=O)C1CCC1 [MI-6PEG-GGFG-D7] ({Propanoyl(3-maleimido)-PEG6}-GGFG-X1),73.6,76.4,,75.2,+27%,72.7,69.7,+20%,,,2.9,2.40,1.28,1.32,1.68,+24%,+28%,
